# Data reported in patent US8759295B2, “Peptide-peptidase inhibitor conjugates and methods of using same” (Amylin Pharmaceuticals, LLC, priority 2006, dated 2014).
# Where two headings read alike, the source gives them in different places.
# Experiments:
# [1] = target: T1, Recombinant DPP-IV (Homo sapiens, UniProt P27487); assay: DPP-IV resistance assay by mass spectrometry
# Procedure: The peptides were then desalted and concentrated on a C18 peptide micro trap (Michrom Bioresources, Inc., Auburn, Calif.) prior to introduction to a LTQ FT™ mass spectrometer (Thermo-Electron Corp., Waltham, Mass.) via an autosampler (Michrom Bioresources, Inc.). Peptides were eluted from a C5 packed 75 μm fused silica pico-frit column (New Objective, Inc., Woburn, Mass.) using a 5-60% acetonitrile/water gradient over 50 minutes at a flow rate of 500 nl/min. Extracted ion mass windows for the calculated m/z values of the most dominant charge states were used to search for both the parent compound and the theoretical hydrolyzed products within a given chromatogram. Exact mass was confirmed for each charge state by FT. The percentage of hydrolysis catalyzed by DPP-IV was estimated by dividing the area of product ions by the area of the total (parent+product) ions.
# The estimated cleavage product conversion is based on the ratio of the ion extract area (indicated on top of the peaks) for [product ion]^5+ over that for total ions ([Mother Ion]^5++[product ion]^5+). The m/z ratios used to search for the expected ions are listed on the right side of the plots.
# [2] = human, kidney or brush border membranes, 4 h, pH 7.4
# Procedure: The tubes were incubated in VorTemp 56™ (Eurotech Labs, UK) at 37° C. vortexed at 500 RPM. At time points of 0, 1, 2, 3, 4, and 5 hours, 200 μl STOP solution (50% ACN, 1% formic acid) was added to a given tube, and the samples were allowed to incubate until the end of the experiment. The samples were collected after 5 hours, centrifuged, and 200 μl of the supernatants were transferred into mass spectrometry vials. The intensities of the mother ions in each vial were analyzed with API 150EX™ mass spectrometer (Applied Biosystems, Foster City, Calif.) and quantified using the ANALYST™ program.
# The hKBBM assay was also performed in the presence of valinepyrrolidide, a DPP-IV inhibitor.
# [3] = system: NIH/Swiss mice; assay: Oral glucose tolerance test (OGTT), glucose lowering; conditions: IP
# [4] = target: T1, Recombinant DPP-IV; design: purchased Chemicon International, Inc., Temecula, Calif; conditions: Leiting et al. (2003); read-out: DPP-IV IC50, published value; cited from earlier work
# T1 sequence (P27487 whole entry, species assumed, the tested form may be a part): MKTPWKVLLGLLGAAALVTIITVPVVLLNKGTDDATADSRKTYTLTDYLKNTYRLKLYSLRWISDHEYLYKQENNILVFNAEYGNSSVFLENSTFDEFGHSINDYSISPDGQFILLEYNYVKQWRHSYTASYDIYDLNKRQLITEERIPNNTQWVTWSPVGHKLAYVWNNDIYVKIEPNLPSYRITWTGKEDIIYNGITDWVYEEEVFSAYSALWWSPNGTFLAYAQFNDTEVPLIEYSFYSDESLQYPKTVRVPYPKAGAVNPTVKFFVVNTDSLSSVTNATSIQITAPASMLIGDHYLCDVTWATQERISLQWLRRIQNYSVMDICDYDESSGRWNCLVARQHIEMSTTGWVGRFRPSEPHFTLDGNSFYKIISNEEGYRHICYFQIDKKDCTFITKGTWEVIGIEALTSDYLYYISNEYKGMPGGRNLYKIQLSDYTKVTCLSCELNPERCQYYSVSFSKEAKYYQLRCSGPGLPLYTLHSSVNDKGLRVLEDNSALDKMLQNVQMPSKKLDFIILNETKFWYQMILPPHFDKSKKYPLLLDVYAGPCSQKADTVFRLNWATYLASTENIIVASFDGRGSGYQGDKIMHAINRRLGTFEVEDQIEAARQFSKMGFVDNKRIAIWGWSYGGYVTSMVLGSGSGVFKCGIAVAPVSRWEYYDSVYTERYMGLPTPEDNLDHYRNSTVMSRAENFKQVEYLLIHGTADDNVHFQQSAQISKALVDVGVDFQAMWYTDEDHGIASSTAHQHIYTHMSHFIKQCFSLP
smiles,measurement,setting,value
"CC[C@H](C)[C@H](NC(=O)[C@H](Cc1ccccc1)NC(=O)[C@H](CCC(=O)O)NC(=O)[C@H](CCCCN)NC(=O)[C@H](C)NC(=O)[C@H](C)NC(=O)[C@H](CCC(N)=O)NC(=O)CNC(=O)[C@H](CCC(=O)O)NC(=O)[C@H](CC(C)C)NC(=O)[C@H](Cc1ccc(O)cc1)NC(=O)[C@H](CO)NC(=O)[C@H](CO)NC(=O)[C@@H](NC(=O)[C@H](CC(=O)O)NC(=O)[C@H](CO)NC(=O)[C@@H](NC(=O)[C@H](Cc1ccccc1)NC(=O)[C@@H](NC(=O)CNC(=O)[C@H](CCC(=O)O)NC(=O)[C@H](C)NC(=O)[C@@H](N)Cc1c[nH]cn1)[C@@H](C)O)[C@@H](C)O)C(C)C)C(=O)N[C@@H](C)C(=O)N[C@@H](Cc1c[nH]c2ccccc12)C(=O)N[C@@H](CC(C)C)C(=O)N[C@H](C(=O)N[C@@H](CCCCN)C(=O)NCC(=O)N[C@@H](CCCNC(=N)N)C(=O)NCC(=O)NCC(=O)NCC(=O)NCCCC[C@H](N)C(=O)N1CCSC1)C(C)C [Compound 4844, GLP-1-(7-37)-GG-(S)-2,6-diamino-1-(thiazolidin-3-yl)hexan-1-one amide]",DPP-IV catalyzed cleavage product ions,[1]; incubation with DPP-IV,expected product ions were not observed
"CC[C@H](C)[C@H](NC(=O)[C@H](Cc1ccccc1)NC(=O)[C@H](CCC(=O)O)NC(=O)[C@H](CCCCN)NC(=O)[C@H](C)NC(=O)[C@H](C)NC(=O)[C@H](CCC(N)=O)NC(=O)CNC(=O)[C@H](CCC(=O)O)NC(=O)[C@H](CC(C)C)NC(=O)[C@H](Cc1ccc(O)cc1)NC(=O)[C@H](CO)NC(=O)[C@H](CO)NC(=O)[C@@H](NC(=O)[C@H](CC(=O)O)NC(=O)[C@H](CO)NC(=O)[C@@H](NC(=O)[C@H](Cc1ccccc1)NC(=O)[C@@H](NC(=O)CNC(=O)[C@H](CCC(=O)O)NC(=O)[C@H](C)NC(=O)[C@@H](N)Cc1c[nH]cn1)[C@@H](C)O)[C@@H](C)O)C(C)C)C(=O)N[C@@H](C)C(=O)N[C@@H](Cc1c[nH]c2ccccc12)C(=O)N[C@@H](CC(C)C)C(=O)N[C@H](C(=O)N[C@@H](CCCCN)C(=O)NCC(=O)N[C@@H](CCCNC(=N)N)C(=O)NCC(=O)NCC(=O)NCC(=O)NCCCC[C@H](N)C(=O)N1CCSC1C#N)C(C)C (stereo partly drawn) [Compound 4845, GLP-1-(7-37)-GG-(S)-2,6-diamino-1-(thiazolidin-2-cyano-3-yl)hexan-1-one amide]",DPP-IV catalyzed cleavage product ions,[1],expected product ions were not observed
"CC[C@H](C)[C@H](NC(=O)[C@H](Cc1ccccc1)NC(=O)[C@H](CCC(=O)O)NC(=O)[C@H](CCCCN)NC(=O)[C@H](C)NC(=O)[C@H](C)NC(=O)[C@H](CCC(N)=O)NC(=O)CNC(=O)[C@H](CCC(=O)O)NC(=O)[C@H](CC(C)C)NC(=O)[C@H](Cc1ccc(O)cc1)NC(=O)[C@H](CO)NC(=O)[C@H](CO)NC(=O)[C@@H](NC(=O)[C@H](CC(=O)O)NC(=O)[C@H](CO)NC(=O)[C@@H](NC(=O)[C@H](Cc1ccccc1)NC(=O)[C@@H](NC(=O)CNC(=O)[C@H](CCC(=O)O)NC(=O)[C@H](C)NC(=O)[C@H](Cc1c[nH]cn1)NC(=O)COCCOCCNC(=O)COCCOCCNC(=O)[C@@H]1CCCN1C(=O)[C@H](C)NC(CCc1ccccc1)C(=O)O)[C@@H](C)O)[C@@H](C)O)C(C)C)C(=O)N[C@@H](C)C(=O)N[C@@H](Cc1c[nH]c2ccccc12)C(=O)N[C@@H](CC(C)C)C(=O)N[C@H](C(=O)N[C@@H](CCCCN)C(=O)NCC(=O)N[C@@H](CCCNC(=N)N)C(N)=O)C(C)C (stereo partly drawn) [Compound 4984, (R,S)-1-[N^2-(1-carboxy-3-phenylpropyl)-L-ala]-L-pro-8-amino-3,6-dioxaoctanoyl-8-amino-3,6-dioxaoctanoyl-GLP-1-(7-36) amide]",intact conjugate compound present,[2],greater than 80%
same,"glucose lowering in OGTT (FIGS. 7, 8)",[3]; 2 hour fasted mice,retain the glucose-lowering activity of GLP-1
same,duration of glucose lowering in OGTT,[3]; 240 minutes sample,prolonged effect 4 hours after dosing
"CCC(C)C(N)C(=O)N1CCCC1C(=O)NC(C(=O)O)C(C)CC (stereo not drawn) [Diprotin A, Ile-Pro-Ile]",IC50,[4],3.5 µM
